Patent US9486519B2, “Use of FLT3 ligand for enhancing immune responses in RNA immunization” (BioNTech AG, priority 2008, dated 2016)
Entries after “also recorded” stand apart in the source; their conditions may differ.

Assays:
dendritic cells [1] = assay: Activation status (CD86, CD80, MHC-II, CD40) of lymph node dendritic cells after Flt3L; type: in vivo, C57BL/6 mice; settings: 10 μg day 0 and 3; day 10
Method: In addition, C57BL/6 mice (n=3-7) were administered Flt3L twice (day 0 and 3, each time 10 μg). On day 10 the lymph nodes were removed and the activation status (CD86, CD80, MHC-II, CD40) of the dendritic cells was determined by flow cytometry.

[2] = test system: RNA uptake in the lymph nodes; assay: Effect of Flt3-L on RNA uptake in lymph nodes, in-vivo bioluminescence; parameters: species or system C57BL/6 mice; settings: 10 μg i.p. day 0 and 3; 20 μg luciferase-RNA intranodally day 10
Method: (f) Effect of Flt3-L on RNA uptake. C57BL/6 mice (n=8) were treated i.p. on day 0 and 3 with 10 μg, Flt3-L, or were not treated in the control group. On day 10 the mice were injected intranodally with 20 μg luciferase-RNA. 24 h later the luciferase signal was measured by in-vivo bioluminescence.
C57BL/6 mice (n=8) were treated i.p. on day 0 and 3 with 10 μg Flt3-L or were not treated in the control group. On day 10 the mice were injected intranodally with 20 μg luciferase-RNA. 24 h later the luciferase signal was measured by in-vivo bioluminescence. […] The bars give the mean value of all measured values for a group. The experiment is representative for 3 independent experiments. Statistics: Student's t-test.

lymph nodes and spleen = assay: Cellularity of lymph nodes and spleen after i.p. Flt3-L; type: in vivo, C57Bl/6 mice; settings: 2x, 3x, 5x 10 μg i.p.; 10-12 days after the first injection
Method: C57Bl/6 mice (n=3-9) were administered 10 μg Flt3L intraperitoneally at different timepoints (d1 to d3 or d1, d1, d3 or d0, d3). On day 10 the lymph nodes (LN) and the spleen were removed and the cell count was determined. The data shown represent the average cell count +SEM of the lymph nodes. *: p<0.05 in Tukey's multiple comparison test.
(§1) To test the effects of application of human Flt3 ligand on the efficiency of RNA-based immunizations, the changes in the cellular composition of lymph nodes and spleen were first investigated in the mouse model. For this, various application schemes (2×, 3×, 5×10 μg) of recombinant Flt3-L were applied intraperitoneally and the cellularity was determined 10-12 days after the first injection. […] This increase could be shown for all relevant subpopulations of the dendritic cells in spleen and lymph nodes (FIG. 2).

[3] = test system: SIINFEKL epitope-specific CD8+ T cells; assay: Tetramer and intracellular IFNγ measurement after Flt3-L pretreatment and intranodal RNA immunization; type: in vivo, C57Bl/6 mice; settings: dose above 2×10 μg; data not shown
B16 Ova tumors = assay: Therapeutic vaccination against B16 Ova tumors, survival; type: in vivo, C57BL/6 mice
Method: To examine the synergy of combining Flt3L administration with RNA vaccination, a therapeutic tumor experiment was performed. To this end, 4 groups (n=10) of C57BL/6 mice were formed. All mice received on day 0 a s.c. injection of B16 Ova cells (2×10^5). Hereof a control group was only treated by IgG4 injection (10 μg; d3, d7, d14, d17). […] The Kaplan Meier plot of the survival rate of mice is shown.
To investigate the synergy of the combination of Flt3L administration together with RNA vaccination a therapeutic tumor experiment was performed. To this end four groups (n=10) of C57BL/6 mice were formed. All mice received on day 0 a s.c. injection of 2×10^5 B16 Ova tumor cells (Bellone et al., J. Immunol., 2000, 165:2651-2656). Thereof a control group was only treated by IgG4 injection (10 μg; d3, d7, d14, d17).

[4] = test system: antigen-specific CD8+ T lymphocytes; assay: Effects of different Flt3L on the stimulation of naive T cells, MHC multimer measurement in peripheral blood; type: in vivo, C57BL/6 mice; settings: 0.4 mol i.p. day 0, +3; 20 μg SIINFEKL coding RNA day +7, +10; blood day +15
Method: (§2) These mice were immunized intralymphatically on day +7, +10 with 20 μg […] coding RNA. The control group remained untreated (n=2). On day +15 the frequency of antigen-specific CD8^+ T lymphocytes was measured in peripheral blood by means of MHC multimer measurement.
To this end a product recombinantly expressed in bacteria (Peprotech Flt3L) and a product expressed in human HEK293 cells (Humanzyme Flt3L) was used; cf. Example 7. Human IgG4 served as control.
as §2, with “measured by flow cytometry” for “measured”, “measurement (Beckman Coulter).” for “measurement.”
The mice were administered intraperitoneally Flt3L in equimolar amounts (day 0, +3). In addition, mice were immunized intranodally twice with […] coding RNA (+7, +10). The success of the immunization was quantified by flow cytometry on day +15 by means of tetramer staining.

[5] = test system: cell populations of the murine lymph node; assay: Effects of different Flt3L on the cellular composition in lymph nodes; type: in vivo, C57BL/6 mice; settings: 0.4 mol i.p. day 0; lymph nodes day 10
Excerpt: On day 10 the lymph nodes of the mice were removed and characterized by flow cytometry. Dendritic cells (DCs (marker: CD11c^+/NK1.1^−)), CD4^+ helper T cells (marker: CD3^+/CD4^+/CD8^−/NK1.1^−), CD8^+ T cells (marker: CD3^+/CD8^+/CD4^−/NK1.1^−), CD19^+ B cells (marker: CD19^+/CD3^−/NK1.1^−).
In this experiment Flt3 ligand (Flt3-IgG4) was compared with commercially available Flt3 preparations with respect to the effect on different cell populations of the murine lymph node. A product recombinantly expressed in bacteria (Peprotech Flt3L; Peprotech, Hamburg, Germany) and a product expressed in human HEK293 cells (Humanzyme Flt3L, Humanzyme; Chicago Ill., U.S.A.) were used as commercially available Flt3 preparations. Human IgG4 (Sigma-Aldrich, Deisenhofen, Germany) served as control.
On day 10 both inguinal lymph nodes of the mice were removed, the cell count determined by means of a Neubauer chamber and the cell populations were characterized by flow cytometry.

dendritic cells [6] = assay: Dendritic cell subpopulations in spleen and lymph nodes by flow cytometry after i.p. Flt3-L; type: in vivo, C57Bl/6 mice; settings: 10 μg i.p. d0, d3; day 10
Method: C57Bl/6 mice (n=3) were administered 10 μg Flt3L twice (d0, d3) intraperitoneally. On day 10 the inguinal lymph nodes were removed, the cells were stained with corresponding antibodies and the subpopulations of the dendritic cells were quantified by flow cytometry. The data shown represent the average cell count of the subpopulation *: p<0.05 and **: p<0.001 in the two-sided unpaired t-test.
as §1

B1: Flt3L-IgG4: recombinant human Flt3 ligand prepared as a fusion protein with IgG4, SEQ ID NO: 6, expressed in HEK293 cells (protein)
chain: MTVLAPAWSPTTYLLLLLLLSSGLSGTQDCSFQHSPISSDFAVKIRELSDYLLQDYPVTVASNLQDEELCGGLWRLVLAQRWMERLKTVAGSKMQGLLERVNTEIHFVTKCAFQPPPSCLRFVQTNISRLLQETSEQLVALKPWITRQNFSRCLELQCQPDSSTLPPPWSPRPLEATAPTAPQPPRSPPCPSCPAPEFLGGPSVFLFPPKPKDTLMISRTPEVTCVVVDVSQEDPEVQFNWYVDGVEVHNAKTKPREEQFNSTYRVVSVLTVLHQDWLNGKEYKCKVSNKGLPSSIEKTISKAKGQPREPQVYTLPPSQEEMTKNQVSLTCLVKGFYPSDIAVEWESNGQPENNYKTTPPVLDSDGSFFLYSRLTVDKSRWQEGNVFSCSVMHEALHNHYTQKSLSLSPGK
modifications: Fusionsprotein
Dendritic cells [1]
  maturation of the dendritic cells in the lymph node: does not lead to maturation of the dendritic cells
[2]
  RNA uptake in the lymph nodes (in-vivo bioluminescence): does not have an inhibitory effect
Lymph nodes and spleen
  cellularity in spleen and lymph nodes: increase in cellularity in spleen and lymph nodes
[3]
  immune response on increase of the Flt3-L dose: not correlated with a further intensification of the immune response
B16 Ova tumors; Flt3L-IgG4 15 μg in combination with intranodal RNA vaccination 20 μg
  portion of mice surviving in the long term: about 80%
B16 Ova tumors; Flt3L-IgG4 15 μg without RNA vaccination
  survival in the long term: 10%
B16 Ova tumors; Flt3L-IgG4 without RNA vaccination
  therapeutic effect on tumor growth: minimal therapeutic effect on tumor growth
B16 Ova tumors; survival
  effect of the combination with intranodal vaccination of RNA: synergistic effect
[4]
  adjuvant effect (frequency of antigen-specific CD8+ T lymphocytes): significant adjuvant effect; also recorded: strongest effect
[5]
  expansion of dendritic cells: strong similarity
  expansion of the lymphocyte populations: tended to be strongest
Dendritic cells [6]
  dendritic cells in spleen and lymph nodes: increase in dendritic cells
